A word on the logD: it is the decadic logarithm of the distribution of all forms, ionised or not, between an organic phase and buffer at a given pH. The low end stands for lower lipophilicity, the high end for higher lipophilicity.

Data set [1] is described as follows: Determination of logD(7.4), distribution between n-octanol and phosphate buffer pH 7.4. Format: physicochemical. Particulars: n-octanol / 0.05-M phosphate buffer pH 7.4; 89Zr-labeled peptide-chelator conjugate. As for the experimental part: To a mixture of 1-octanol (800 µL) and 0.05-M phosphate buffer (775 µL, pH 7.4), a solution of the respective ^89Zr-labeled peptide conjugate (5µL of the before-obtained product solution, 0.8–1.2 MBq, 0.37–0.45 nmol) was added. The mixture was vigorously shaken for two minutes. Afterwards, the phases were separated by centrifugation. Two hundred microliters of each, the organic and the aqueous, phase were measured in a gamma counter. Each experiment was performed at least thrice, each in duplicate.
The logD(7.4) values of the ^89Zr-labeled peptide–chelator conjugates were determined by their distribution coefficient between n-octanol and phosphate buffer at pH 7.4.

The nature of data set [2]: EDTA-based 89Zr complex challenge experiments (relative kinetic inertness, radio-HPLC). Format: physicochemical. To be noted: 10,000 eq. of EDTA, pH 7.0, 25 °C, transchelation monitored for up to 54 h by radio-HPLC. How it is done:
For each challenge experiment, three separate solutions of EDTA (14.61 mg, 50 µmol EDTA) in HEPES buffer (0.25 M, pH = 7.0, 380 µL) were prepared. The pH of the solutions was adjusted to pH 7.0 by the addition of a NaOH solution (30%, 12.5 µL), and Tracepur water (7.5 µL) was added to give a final volume of 400 µL of the EDTA solutions. To these solutions was added a solution of the respective ^89Zr-labeled peptide conjugate (5 nmol, 9.7–13.9 MBq), and the solutions were kept at 25 °C over the course of the experiment. At predefined time points, each solution was analyzed by analytical radio-HPLC for determination of the amount of ^89Zr transchelation. Each experiment was performed at least twice, each in triplicate.
In order to directly compare and assess the kinetic inertness of the formed ^89Zr complexes of [^89Zr]Zr-29–[^89Zr]Zr-32, we performed complex challenge experiments using EDTA as the challenging agent of [^89Zr]Zr-30–[^89Zr]Zr-32 in comparison to [^89Zr]Zr-29 serving as the gold standard. […]

Another data set concerns integrin αvβ3. Also noted: method as in PMID 28074920. Particulars: cited from earlier work.

As to `CC(=O)N(O)CCCCCNC(=O)CCC(=O)N(O)CCCCCNC(=O)CCC(=O)N(O)CCCCCNC(=O)CCC(=O)NCc1ccc(-c2nncc3c2CCC(OC(=O)NCCCC[C@@H]2NC(=O)[C@@H](Cc4ccccc4)NC(=O)[C@H](CC(=O)O)NC(=O)CNC(=O)[C@H](CCCNC(=N)N)NC2=O)CCC3)cc1` (some centres unmarked) [[^89Zr]Zr-29, metal not drawn], the logD in data set [1] was -2.32 ± 0.21. The “kinetic inertness of the 89Zr complex against EDTA challenge” value in data set [2] is “limited inertness and rapid transfer of the radiometal to EDTA”.
`CC(=O)N(O)CCCCCNC(=O)CCC(=O)N(O)CCCCCNC(=O)CCC(=O)N(O)CCCCCNC(=O)CCC(=O)N(O)CCCCCNC(=O)CCC(=O)NCc1ccc(-c2nncc3c2CCC(OC(=O)NCCCC[C@@H]2NC(=O)[C@@H](Cc4ccccc4)NC(=O)[C@H](CC(=O)O)NC(=O)CNC(=O)[C@H](CCCNC(=N)N)NC2=O)CCC3)cc1` (some centres unmarked) [[^89Zr]Zr-31, metal not drawn] gave a logD in data set [1] of -2.49 ± 0.03. Besides, in data set [2], the “kinetic inertness of the 89Zr complex against EDTA challenge” value was “high resistance to the challenge”.
Regarding c(RGDfK), the “affinity for integrin αvβ3” value in the data set with integrin αvβ3 is listed as “high affinity”.

Values taken from publication PMC8699488, “Side-by-Side Comparison of Five Chelators for ^89Zr-Labeling of Biomolecules: Investigation of Chemical/Radiochemical Properties and Complex Stability” (Cancers, 2021).
